Experiment [1] deals with apoE4 (human) (UniProt P02649). As to the kind of experiment: competitive inhibition ELISA: lipidated apoE4 100 nM preincubated with Aβ12-28P (0-400 nM), added to Aβ1-40 coated wells; one-site competition fit.
The next experiment addresses apoE3 (human) (UniProt P02649). As to the kind of experiment: cell-based or functional assay.
The target of experiment [2] is apoE4 (human) (UniProt P02649). As to the kind of experiment: cell-based or functional assay.

Sequence of apoE4 (human) (P02649 19-317 C130R limits assumed): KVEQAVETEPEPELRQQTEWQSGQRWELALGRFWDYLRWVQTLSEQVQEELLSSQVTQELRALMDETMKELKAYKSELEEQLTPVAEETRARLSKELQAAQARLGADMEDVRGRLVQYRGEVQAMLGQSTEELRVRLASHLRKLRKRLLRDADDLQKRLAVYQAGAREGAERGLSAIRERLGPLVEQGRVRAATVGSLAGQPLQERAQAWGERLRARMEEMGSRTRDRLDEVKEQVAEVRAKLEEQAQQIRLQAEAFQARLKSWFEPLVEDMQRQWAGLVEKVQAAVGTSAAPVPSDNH
Sequence of apoE3 (human) (P02649 19-317 limits assumed): as the sequence (P02649 19-317 C130R limits assumed) above, with R112C counted along it

Turning to Aβ12-28P (peptide), the IC50 with apoE4 (human) [1] stood at 36.7 nM. Also, in the experiment with apoE3 (human), the relative reduction in Thioflavin-T fluorescence of Aβ1-42 with apoE3 after 24 h of incubation is 14.5% and the relative reduction in Thioflavin-T fluorescence of Aβ1-42 with apoE3 by day six turned out to be 48.3%. In the experiment with apoE4 (human) [2], this substance had a relative reduction in Thioflavin-T fluorescence of Aβ1-42 with apoE4 after 24 h of incubation of 25.3% and a relative reduction in Thioflavin-T fluorescence of Aβ1-42 with apoE4 by day six of 52.3%.

Source of the values: patent US20040214774A1.
